Measurements published in publication PMC3715477.

Target: CC-Gp047 (residues 1040–1365 of Gp047, putative receptor binding protein of C. jejuni phage NCTC12673) (Campylobacter jejuni phage NCTC12673)
Test: SDS-resistant oligomers (method not named; data not shown); data not shown; oligomers called SDS-resistant; construct and conditions not told

“CC-Gp047 (residues 1040–1365 of Gp047, putative receptor binding protein of C. jejuni phage NCTC12673) (domain or fragment)” showed a stoichiometry N greater than 3.
